# Assay results taken from patent publication US20210380703A1 (RIGEL PHARMACEUTICALS, published 2021).
# Residue numbers refer to the chain shown, from its start.
# B1: 368_G07 (antibody, V domains shown)
# VH: EVQLLESGGGLVQPGGSLRLSCAASGFTFSSYSMHWVRQAPGKGLEWVSSINYNGGYTSYADSVKGRFTISRDNSKNTLYLQMNSLRAEDTAVYYCARSATWHDTHLDYWGQGTLVTVSS
# VL: DIQMTQSPSSLSASVGDRVTITCRASQSIVSYVNWYQQKPGKAPKLVIYAATSRASGVPSRFSGSGSGTDFTLTISSLQPEDFATYYCQQSYDTPLTFGGGTKVEIK
# notes: VH and VL only
# B2: 373_D09 (antibody, V domains shown)
# VH: B1 VH with S30D, H35N, S50G, G55S
# VL: B1 VL with V30L, S31T, V33L, A55H, D93E, T94N
# notes: VH and VL only
# B3: 371_B05 (antibody, V domains shown)
# VH: B1 VH with H35N, S50G, G55S
# VL: B1 VL with V30L, S31T, V33L, R54L, Y92D, D93E
# notes: VH and VL only
# B4: 374_G12 (antibody, V domains shown)
# VH: B1 VH with S30D, S31D, S33G, H35N, T58K
# VL: B1 VL with V30L, S31T, R54L, D93N, T94S
# notes: VH and VL only
# B5: 369_A01 (antibody, V domains shown)
# VH: B1 VH with S30D, H35N, S50G, G55S, T58K, S59G
# VL: B1 VL with V30L, S31T, R54L, D93E, T94L
# notes: VH and VL only
# B6: 370_D07 (antibody, V domains shown)
# VH: B1 VH with S33G, H35N, S50N, G55S, S59G
# VL: B1 VL with V30L, R54L, D93E, T94S
# notes: VH and VL only
# B7: 374_E04 (antibody, V domains shown)
# VH: B1 VH with H35N, S50G, G55S, T58K
# VL: B1 VL with V30L, V33L, V47L, A51V, D93N, T94N
# notes: VH and VL only
# B8: 369_C08 (antibody, V domains shown)
# VH: B1 VH with S31D, S33G, H35N, S50N, S59G
# VL: B1 VL with V30L, S31T, V33L, R54L, D93E, T94N
# notes: VH and VL only
# B9: 371_F12 (antibody, V domains shown)
# VH: B1 VH with S30D, H35N, S50N, T58K
# VL: B1 VL with V30I, V33L, V47L, Y92N, D93N, T94L
# notes: VH and VL only
# B10: 373_F02 (antibody, V domains shown)
# VH: B1 VH with S30D, H35N, S50G, G55S, T58K
# VL: B1 VL with V30L, S31T, V33L, V47L
# notes: VH and VL only
# B11: 375_B10 (antibody, V domains shown)
# VH: B1 VH with S30D, H35N, S50G, G55S
# VL: B1 VL with V30L, V33L, V47L, A55H, T94L
# notes: VH and VL only
# B12: 374_G02 (antibody, V domains shown)
# VH: B1 VH with S30D, H35N, S50G, G55S
# VL: B1 VL with V30L, S31T, V33L, V47L, T52S, R54L, A55Q
# notes: VH and VL only
# B13: 369_G09 (antibody, V domains shown)
# VH: B1 VH with S30D, H35N, S50N, S59G
# VL: B1 VL with S31T, V33L, V47L, T94L
# notes: VH and VL only
# B14: 368_G08 (antibody, V domains shown)
# VH: B1 VH with S30D, S31D, S33G, H35N, G55S, T58K
# VL: B1 VL with V47L, A55H, D93N, T94N
# notes: VH and VL only
# B15: 369_E09 (antibody, V domains shown)
# VH: B1 VH with S30D, H35N, S50N, G55S, T58K, S59G
# VL: B1 VL with V30L, V33L, T94L
# notes: VH and VL only
# B16: 369_A06 (antibody, V domains shown)
# VH: B1 VH with S31D, S33G, H35N, S50N, S59G
# VL: B1 VL with V30L, V47L, R54L, T94L
# notes: VH and VL only
# B17: 373_E08 (antibody, V domains shown)
# VH: B1 VH with S30D, S33G, H35N, S50G, G55S
# VL: B1 VL with V47L, A51V, D93E, T94S
# notes: VH and VL only
# B18: 373_H12 (antibody, V domains shown)
# VH: B1 VH with S31D, H35N, S50G, G55S, T58K, S59G
# VL: B1 VL with V30L, S31T, V33L, V47L, D93N, T94S
# notes: VH and VL only
# B19: 371_B10 (antibody, V domains shown)
# VH: B1 VH with S30D, H35N, S50N, S59G
# VL: B1 VL with V47L, T94L
# notes: VH and VL only
# B20: 370_A10 (antibody, V domains shown)
# VH: B1 VH with S31D, H35N, G55S, T58K, S59G
# VL: B1 VL with V30L, V47L, R54L
# notes: VH and VL only
# B21: 369_D06 (antibody, V domains shown)
# VH: B1 VH with S30D, H35N, S50G, S59G
# VL: B1 VL with V30L, S31T, V33L, V47L, D93E
# notes: VH and VL only
# B22: 374_E03 (antibody, V domains shown)
# VH: B1 VH with H35N, S50N, G55S, T58K, S59G
# VL: B1 VL with V30L, S31T, R54L
# notes: VH and VL only
# B23: 374_B11 (antibody, V domains shown)
# VH: B1 VH with H35N, S50G, G55S, T58K
# VL: B1 VL with V30L, S31T, T94L
# notes: VH and VL only
# B24: 374_F09 (antibody, V domains shown)
# VH: B1 VH with S33G, H35N, G55S
# VL: B1 VL with V30S, V47L, D93S
# notes: VH and VL only
# B25: 372_H03 (antibody, V domains shown)
# VH: B1 VH with S30D, S33G, H35N, S50N, T58K
# VL: B1 VL with V30I, S31T, V47L, R54L, D93N, T94L
# notes: VH and VL only
# B26: 374_E06 (antibody, V domains shown)
# VH: B1 VH with S30D, H35N, G55S, T58K, S59G
# VL: B1 VL with V30L, V33L, V47L, T94L
# notes: VH and VL only
# B27: 369_E04 (antibody, V domains shown)
# VH: B1 VH with S31D, H35N, S50G, G55S, T58K
# VL: B1 VL with V30L, D93S, T94L
# notes: VH and VL only
# B28: 369_H11 (antibody, V domains shown)
# VH: B1 VH with S31D, S33G, H35N, S59G
# VL: B1 VL with V30L, V33L, V47L, A55H, T94L
# notes: VH and VL only
# B29: 373_A07 (antibody, V domains shown)
# VH: B1 VH with H35N, S50N, S59G
# VL: B1 VL with V30L, S31T, V47L, Y92D, D93N, T94L
# notes: VH and VL only
# B30: 369_F04 (antibody, V domains shown)
# VH: B1 VH with S33G, H35N, S50G
# VL: B1 VL with V30I, V47L, A55H, T94N
# notes: VH and VL only
# B31: 370_A08 (antibody, V domains shown)
# VH: B1 VH with S30D, H35N, G55S, S59G
# VL: B1 VL with S31T, V33L, T94L
# notes: VH and VL only
# B32: 373_D02 (antibody, V domains shown)
# VH: B1 VH with H35N, S50N, G55S, T58K, S59G
# VL: B1 VL with V30L, V33L, V47L, R54L, T94L
# notes: VH and VL only
# B33: 374_A08 (antibody, V domains shown)
# VH: B1 VH with S30D, H35N, S50N, G55S
# VL: B1 VL with S31T, V33L, V47L, R54L, T94L
# notes: VH and VL only
# B34: 374_G01 (antibody, V domains shown)
# VH: B1 VH with S30D, H35N, S50N, G55S
# VL: B1 VL with V30L, S31T, V47L, A51T, A55H, D93N, T94L
# notes: VH and VL only
# B35: 374_C07 (antibody, V domains shown)
# VH: B1 VH with S30D, H35N, S50N
# VL: B1 VL with V30I, V33L, V47L, Y92D, D93E, T94L
# notes: VH and VL only
# B36: 374_D11 (antibody, V domains shown)
# VH: B1 VH with S30D, S33G, H35N, S50N, G55S, S59G
# VL: B1 VL with V30L, S31T, V33L, V47L, D93E
# notes: VH and VL only
# Legend:
# mouse ACVR2A = mouse ACVR2A (mouse, UniProt P27038 20-135, limits assumed); assay: ELISA
# Summary of the method: (§1)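 Binding signal was read by ELISA after ACVR2A-specific monoclonal antibodies were tested against human ACVR2A and mouse ACVR2A, with human Fc as the negative control.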
# human ACVR2A = target: T1, human ACVR2A (human, UniProt P27037 20-135, limits assumed); assay: ELISA
# T1 construct: also called activin receptor, type II A
# Summary of the method: as §1
# [1] = target: T2, biotinylated goat anti-human kappa light chain; assay: ELISA, positive control
# T2 construct: Positive control of the ELISA
# Summary of the method: as §1
# Also: test concentration or dose not given here.
# Chain of mouse ACVR2A (P27038 20-135 limits assumed): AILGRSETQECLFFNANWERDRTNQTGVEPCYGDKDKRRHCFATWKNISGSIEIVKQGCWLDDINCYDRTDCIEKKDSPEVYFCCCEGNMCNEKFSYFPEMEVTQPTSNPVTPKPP
# T1 sequence (P27037 20-135 limits assumed): as the sequence (P27038 20-135 limits assumed) above, with R20K, I73V counted along it
Binder,optical density (mouse ACVR2A) [OD],optical density (human ACVR2A) [OD],optical density [1] [OD]
B1,2.05,1.79,3.16
B2,3.5,3.46,3.04
B3,1.24,1.05,1.65
B4,3.21,3.19,3.15
B5,3.66,3.6,3.55
B6,3.14,2.81,3.38
B7,3.72,3.74,3.19
B8,2.33,2.32,2.8
B9,2.3,2.47,3.62
B10,3.6,3.62,3.15
B11,3.74,3.65,3.14
B12,3.54,3.52,3.17
B13,3.27,3.36,3.6
B14,1.75,1.6,3.29
B15,3.77,3.63,3.48
B16,3.01,2.89,3.32
B17,3.23,2.97,3.2
B18,2.98,3.06,3

Binder,optical density (mouse ACVR2A) [OD],optical density (human ACVR2A) [OD],optical density [1] [OD]
B19,3.36,3.31,3.44
B20,2.88,2.58,3.47
B21,3.35,3.44,3.11
B22,3.79,3.72,3.13
B23,3.66,3.69,3.17
B24,3.62,3.53,3.14
B25,2.7,2.32,3.64
B26,3.75,3.84,3.25
B27,3.3,2.88,3.52
B28,1.64,1.45,2.21
B29,3.59,3.52,3.11
B30,2.17,1.95,3.46
B31,2.33,2.41,3.52
B32,3.65,3.73,3.19
B33,3.67,3.59,2.94
B34,3.6,3.34,2.92
B35,3.7,3.65,3.22
B36,3.58,3.64,2.9
